Experimental data reported in patent US10465005B2, “JAML specific binding agents, antibodies, and uses related thereto” (Emory University, priority 2011, dated 2019).
Entries after “also recorded” stand apart in the source; their conditions may differ.

B1: DW100: monoclonal anti-human JAML antibody (IgG1,κ), hybridoma ATCC PTA-13051; VH SEQ ID NO:19, VL SEQ ID NO:22 (antibody, V domains shown)
VH: DVQLVESGAELVRPGASKLSCKALAYTFTDYEMHWVKQTPVHGLEWIGIIHPGSGGTVYNQKFKGKATLTADKSSSTAYMELSSLTSEDSTVYYCTRRRYYGSSYNWYFDVWGAGN
VL: VLTQSPASLAASVGETVTITCRASENIYYSLAWYQQKQGKSPQLLIYNANSLEDGVPSRFSGSGSGTQYSLKINSMQPEDTATYFCEQTYDVPLTFGAGTKLEL
B2: sJAML: recombinant soluble fragment of JAML.D1D2 tagged with 10 His residues at the C-terminus (protein)
chain: LNDLNVSPPELTVHVGDSALMGCVFQSTEDKCIFKIDWTLSPGEHAKDEYVLYYYSNLSVPIGRFQNRVHLMGDILCNDGSLLLQDVQEADQGTYICEIRLKGESQVFKKAVVLHVLPEEPKELMVHVGGLIQMGCVFQSTEVKHVTKVEWIFSGRRAKEEIVFRYYHKLRMSVEYSQSWGHFQNRVNLVGDIFRNDGSIMLQGVRESDGGNYTCSIHLGNLVFKKTIVLHVSPEEPRTL

What was measured:
[1] = tested on: CHO-JAML and CHO-CAR cells; experiment: CHO-JAML / CHO-CAR cell aggregation assay; format: cell-based; settings: for aggregation of mixed CHO-CAR and CHO-JAML cultures (number and size of clusters): antibodies 30 μg/ml, 1 hour at 37° C., FIG. 1D
Method: FIG. 1D. CHO-K1 cells stably transfected with either JAML (CHO-JAML) or CAR (CHO-CAR) proteins were allowed to aggregate (1 hour at 37° C. on a shaker at 50 RPM) separately (1×10^6 cells/BSA coated 3 ml Petri dish), or as a mix (5×10^5 each cell type/dish), in the absence or presence of anti-JAML monoclonal antibodies DW100, DW55 and DW216 (30 μg/ml). The number of clusters (left) and the area of the clusters (right) were quantified in 7 randomly chosen fields using light microscopy. The results are representative of four independent experiments. CHO-CAR and CHO-JAML in mixed cultures formed large aggregates.
Because certain antibodies recognize the membrane distal domain of JAML, their ability to inhibit binding to CAR was tested. By ELISA, the levels of soluble CAR-GST bound to immobilized sJAML-His preincubated with anti JAML antibodies was measured. […] Thus, these antibodies recognize three different epitopes on JAML and that both DW100 and DW55 bind epitopes close to the JAML binding site. Using a cell aggregation assay, the possibility that DW100 could inhibit the binding of JAML to CAR expressed on the surface of cells was examined. […] This again confirms previously described JAML binding to CAR, as well as the specificity of DW100 (blocking) and DW216 (non-blocking) Abs to JAML.

T84 and CACO-2 cells = experiment: Cell adhesion assay, PMN and HL60 to epithelial monolayers; format: cell-based, human; settings: sJAML-His and mAbs 30 μg/ml, 1 hour
Method: PMN cells were pre-labeled with CellTracker™ Green (CMFDA). Labeled cells (2.5×10^5/well) were allowed to adhere for 1 hour to T84 (white bars) and CACO-2 (black bars) cells grown to confluency in 24 well tissue culture microtiter wells, in the absence (NoTx) or presence of soluble JAML (sJAML-His), 30 μg/ml), anti-JAML monoclonal antibodies DW100 and DW216 (30 μg/ml), or alternatively to stable CACO-2 cells lacking CAR. Non-adherent HL60 cells and PMN were removed by 3 washes with HBSS. Adherent cells were harvested by treating the monolayers with trypsin, followed by lysis with 0.1% Triton 100×. Fluorescence intensity was measured using FluoStar Galaxy plate reader at excitation/emission wavelengths of 485/535 nm.
JAML-CAR interactions are involved in PMN adhesion to epithelium. […] Indeed adhesion of both HL-60 cells and PMNs to epithelium is partly dependent upon JAML-CAR binding. […] HL-60 cells and PMNs also adhered to a lesser degree to Caco2 cells where the expression of CAR was stably knocked down, confirming the specificity of the adhesion events to JAML-CAR interactions.
Epithelial cells (T84/Caco-2) were seeded on 24-well plates (10^6 cells/well) and cultured until they reached confluence. […] Fluorescence intensity was measured using FluoStar Galaxy plate reader at excitation/emission wavelengths of 485/535 nm. […]

[2] = tested on: T84 epithelial monolayers; experiment: Scratch wound closure of epithelial monolayers; format: cell-based, human; settings: for epithelial wound closure: T84 scratch wound, monitored over 72 h, FIG. 10
Method: T84 epithelial monolayers grown to confluence were wounded by introduction of a single linear scratch wound using a 20-μl plastic pipette tip. Wound closure was monitored over 72 h in the absence or presence of PMN or sJAML. The scale bar is 10 μm.
Whether JAML binding to CAR would affect epithelial wound restitution was investigated. […] If soluble JAML interactions with CAR play a role, the effect could be reversed with the addition of blocking DW100 mAb.
Cell grown in 24-well tissue culture plates received one linear wound using a 20-μl plastic pipette tip attached to low suction. Wounded monolayers were washed once with PBS to remove detached cells and debris, and incubated with the appropriate stimulus added to the medium. The rate of migration was measured by determining the wound area immediately after wounding (t=0) and at the indicated time points. The data are presented as the area of the wound at each time point normalized to t=0. The experiments were carried out in triplicates per condition, and the data shown are representative of 4 independent experiments.

[3] = tested on: T84 intestinal epithelial cells; experiment: EdU incorporation cell proliferation at wound edge; format: cell-based, human; settings: FIG. 10C,D
Method: FIG. 10C. Epithelial monolayers were wounded as described above and cell proliferation at the wound edge after 24 hours incubation with either sJAML or sSIRPa (30 μg/ml), with or without the addition of DW100 mAb was assessed by EdU incorporation assay. Data presented as proliferating cells (positively stained with EdU) out of all cells in the field multiplied by 100. Cells were counted in 7 randomly selected fields in 4 independent experiments.
JAML binding CAR to inhibit epithelial cell proliferation was investigated as a possible mechanism for impeding wound healing.
Cell proliferation was assessed in […] (EdU) incorporation assay, by using a Click-iT EdU Alexa 488 cell proliferation kit (Invitrogen). Cell apoptosis was assessed by staining with sulforhodamine labeled caspase inhibitor SR-VAD-FMK from APO LOGIX
Sulforhodamine Caspase Detection kit (Cell Technology). Scratch wounded or confluent cells were subjected to treatment as indicated in the figure were incubated for 24 hrs at 370 C before addition of EdU or APO LOGIX Sulforhodamine Caspase Detection kits. At least 5 random fields per each condition were analyzed, the data are presented as % proliferating/apoptotic cells out of total cells in the field.

Molecule	aggregation of CHO-JAML cells alone (JAML-JAML) ([1]; FIG. 1)	aggregation of mixed CHO-CAR and CHO-JAML cultures (number and size of clusters) [1]	adhesion of HL60 cells and PMN to epithelial monolayer (T84 and CACO-2 cells; FIG. 8)	reversal of PMN or sJAML inhibition of wound closure ([2]; T84, mAb 30 μg/ml, FIG. 10A,B)	block of soluble JAML inhibition of proliferation ([3]; EdU)	adhesion of HL60 cells and PMN to epithelial monolayer (T84 and CACO-2 cells; FIG. 8, listed as soluble JAML)	epithelial wound closure [2]	epithelial wound closure ([2]; listed as Soluble JAML)	proliferation of epithelial cells at wound edge (EdU) ([3]; 30 μg/ml, 24 hours)
B1	could not be blocked with DW100 mAb	could be blocked with DW100; also recorded: significantly inhibited aggregation of mixed cultures of CHO transfectants; also recorded: significantly decreased both the size and the number of formed clusters	decreased adhesion of HL60 cells and PMN to epithelial monolayer; also recorded: significantly decreased	reversed this inhibition; also recorded: significantly improved wound restitution	blocked by addition of DW100				
B2		blocked				decreased adhesion of HL60 cells and PMN to epithelial monolayer; also recorded: significantly decreased	inhibited wound closure	delayed both epithelial barrier recovery and wound restitution	significantly inhibits proliferation of T84 intestinal epithelial cells
